Assay: Calibration of free NIR probe/sensor by bilirubin titration (cuvette fluorometry, fit with equation 1)
Type: binding
Details: for Qs (Rm/Ro): degree to which the probe is quenched by bilirubin binding, effect of fluorophore position
From the text: Embodiments provided herein are directed to methods of calibrating the bilirubin probes by mixing in an aqueous media the sensor with samples of bilirubin of increasing total bilirubin concentrations (BT), measuring the ratio of fluorescence intensities R of the sensor at each concentration, and determining the calibration parameters (Kd, Rm, and Ro) from the measured fluorescence by fitting with the equation (1), wherein R is the measured fluorescence ratio (Iλ1/Iλ2), where hi is the fluorescence intensity from the first fluorophore at wavelength λ1 and Iλ2 is the fluorescence intensity from the second fluorophore at wavelength λ2, both λ1 and λ2 have background subtracted, and Ro is the ratio in the absence of bilirubin. BT is the total bilirubin concentration and PT is the concentration of the sensor, r is the Iλ2/Iλ1 ratio of the bilirubin sensitive probe's fluorescence in the absence of the second fluorophore, Kd is the equilibrium dissociation constant of the sensor and Rm is the ratio R extrapolated to infinite BT. Equation (1) is used in some embodiments rather than equation (5) of U.S. Pat. No. 9,529,003 when Rm is >0.
Also described are methods for calibrating and using a bilirubin sensor described herein so that Bf concentrations can be determined in approximately 5 μl of undiluted blood samples in a single step. These small volume blood samples are applied to the disposable plastic microfluidic cartridges containing the dried bilirubin ratio sensor. The bilirubin sensor containing cartridges are preferably used for a single measurement and the calibration parameters (Kd, Rm, Ro) must be determined within a “lot” of identically manufactured cartridges. The calibration is performed by titrating a sufficient number of cartridges with aqueous samples of increasing well-defined Bf levels. Because plastics bind unbound bilirubin and because surface to volume ratio in the microfluidics channel is large, the calibration Bf samples must be highly buffered by complexes with albumin. The Bf concentrations of each complex are determined by measuring each by cuvette fluorometry using a calibrated sensor free in aqueous solutions. The free sensor is calibrated by titration with aqueous solutions of bilirubin where the concentrations of these unbound bilirubin solutions are determined by absorbance. The free probe's response (R values versus Bf concentrations) are used to determine the free sensor's calibration (Kd, Rm, Ro) (equation 1). The calibrated free sensor mixed with samples of each of the BR:HSA complexes is used to determine the Bf concentrations of each complexes by cuvette fluorometry using equation 2. These calibrated complexes are used to determine the binding parameters of the disposable cartridges including the equilibrium dissociation constant (Kd), the minimum fluorescence ratio (Rm) and the initial ratio (Ro) under defined conditions, of temperature, pH, and solution composition, suitable for blood samples. Binding isotherms are performed in aqueous buffer by measuring the change in fluorescence of the bilirubin sensor in response to increasing bilirubin concentrations (“titration data”). The set of fluorescence responses at each bilirubin concentration are fitted with an appropriate equation (“calibration equation (3)”) that correctly describes the fluorescence response as a function of the Bf concentration, the, specific spectroscopic characteristics, and the Kd.
All responder probes labeled with LICOR 700DX-maleimide and non-responder probes labeled with LICOR 800CW-maleimide probes in Tables 1 and 2, respectively have qualitatively similar dependencies on Bf. The probes differ mostly in protein expression, binding parameters (Kd, Ro and Rm) and stability. […] Although the non-responders are not characterized by bilirubin binding parameters, the emission spectrum of the 800CW-maleimide is sensitive to specific substitutions that can alter the LICOR 700DX-maleimide intensities. […]

[1] = effect of fluorophore (cysteine) position, responder probe labeled with 700DX-maleimide
[2] = free Bf sensor, fit of equation 1 (FIG. 2)

Molecule | Kd [1] | Kd (free Bf sensor with non-responder Mut:SEQ ID NO:1 B-73C in aqueous buffer, excitation 660 nm, 700/805 ratio, fit of equation 1 (FIG. 2)) | Qs (Rm/Ro) | Qs which is Rm/Ro [2] | Rm [2] | Ro [2]
29C-C2XH11-700DXM: rIFABP mutein MGI-KR14-14R 18L 27A 29C 38V 60R 73F 106L 115R 117D 131D-C2XH11 labeled with LICOR 700DX-maleimide (protein, C2XH11 tag; LICOR 700DX-maleimide label; mutated bf sensitive probe, rIFABP mutein MGI-KR14-14R 18L 27A 29C 38V 60R 73F 106L 115R 117D 131D-C2XH11 labeled with LICOR 700DX-maleimide) MGIAFDGTWRVDRNENRERFLERMGINVVARCLGAHDNLRVTITQEGNRFTVRESSNFRNIDRVFELGVDFAYSLFDGTELTGTWTMEGNRLVGRFRRVDNGRELIAVLEISGNELIRTDTYEGVEARRIFRRDRGAASHHHHHHSHRATPNTSPHHHHHHH | 29 nM | – | 0.52 | – | – | –
30C-C2XH11-700DXM: rIFABP mutein MGI-KR14-14R 18L 27A 30C 38V 60R 73F 106L 115R 117D 131D-C2XH11 labeled with LICOR 700DX-maleimide (protein, C2XH11 tag; LICOR 700DX-maleimide label; mutated bf sensitive probe, rIFABP mutein MGI-KR14-14R 18L 27A 30C 38V 60R 73F 106L 115R 117D 131D-C2XH11 labeled with LICOR 700DX-maleimide) MGIAFDGTWRVDRNENRERFLERMGINVVARRCGAHDNLRVTITQEGNRFTVRESSNFRNIDRVFELGVDFAYSLFDGTELTGTWTMEGNRLVGRFRRVDNGRELIAVLEISGNELIRTDTYEGVEARRIFRRDRGAASHHHHHHSHRATPNTSPHHHHHHH | 41 nM | – | 0.11 | – | – | –
33C-C2XH11-700DXM: rIFABP mutein MGI-KR14-14R 18L 27A 33C 38V 60R 73F 106L 115R 117D 131D-C2XH11 labeled with LICOR 700DX-maleimide (protein, C2XH11 tag; LICOR 700DX-maleimide label; mutated bf sensitive probe, rIFABP mutein MGI-KR14-14R 18L 27A 33C 38V 60R 73F 106L 115R 117D 131D-C2XH11 labeled with LICOR 700DX-maleimide) MGIAFDGTWRVDRNENRERFLERMGINVVARRLGACDNLRVTITQEGNRFTVRESSNFRNIDRVFELGVDFAYSLFDGTELTGTWTMEGNRLVGRFRRVDNGRELIAVLEISGNELIRTDTYEGVEARRIFRRDRGAASHHHHHHSHRATPNTSPHHHHHHH | 25 nM | – | 0.17 | – | – | –
24C- C2XH11-700DXM: rIFABP mutein MGI-KR14-14R 18L 24C 27A 38V 60R 73F 106L 115R 117D 131D-C2XH11 labeled with LICOR 700DX-maleimide (protein, C2XH11 tag; LICOR 700DX-maleimide label; mutated bf sensitive probe, rIFABP mutein MGI-KR14-14R 18L 24C 27A 38V 60R 73F 106L 115R 117D 131D-C2XH11 labeled with LICOR 700DX-maleimide) MGIAFDGTWRVDRNENRERFLERMGICVVARRLGAHDNLRVTITQEGNRFTVRESSNFRNIDRVFELGVDFAYSLFDGTELTGTWTMEGNRLVGRFRRVDNGRELIAVLEISGNELIRTDTYEGVEARRIFRRDRGAASHHHHHHSHRATPNTSPHHHHHHH | 44 nM | – | 0.14 | – | – | –
25C-C2XH11-700DXM: rIFABP mutein MGI-KR14-14R 18L 25C 27A 38V 60R 73F 106L 115R 117D 131D-C2XH11 labeled with LICOR 700DX-maleimide (protein, C2XH11 tag; LICOR 700DX-maleimide label; mutated bf sensitive probe, rIFABP mutein MGI-KR14-14R 18L 25C 27A 38V 60R 73F 106L 115R 117D 131D-C2XH11 labeled with LICOR 700DX-maleimide) MGIAFDGTWRVDRNENRERFLERMGINCVARRLGAHDNLRVTITQEGNRFTVRESSNFRNIDRVFELGVDFAYSLFDGTELTGTWTMEGNRLVGRFRRVDNGRELIAVLEISGNELIRTDTYEGVEARRIFRRDRGAASHHHHHHSHRATPNTSPHHHHHHH | 12 nM | – | 0.27 | – | – | –
26C-C2XH11-700DXM: rIFABP mutein MGI-KR14-14R 18L 26C 27A 38V 60R 73F 106L 115R 117D 131D-C2XH11 labeled with LICOR 700DX-maleimide (protein, C2XH11 tag; LICOR 700DX-maleimide label; mutated bf sensitive probe, rIFABP mutein MGI-KR14-14R 18L 26C 27A 38V 60R 73F 106L 115R 117D 131D-C2XH11 labeled with LICOR 700DX-maleimide) MGIAFDGTWRVDRNENRERFLERMGINVCARRLGAHDNLRVTITQEGNRFTVRESSNFRNIDRVFELGVDFAYSLFDGTELTGTWTMEGNRLVGRFRRVDNGRELIAVLEISGNELIRTDTYEGVEARRIFRRDRGAASHHHHHHSHRATPNTSPHHHHHHH | 21 nM | – | 0.36 | – | – | –

Second part, led by results:

Kd [1] | Kd (free Bf sensor with non-responder Mut:SEQ ID NO:1 B-73C in aqueous buffer, excitation 660 nm, 700/805 ratio, fit of equation 1 (FIG. 2)) | Molecule | Qs (Rm/Ro) | Qs which is Rm/Ro [2] | Rm [2] | Ro [2]
14 nM | 12.4 ± 0.4 nM | 76C-C2XH11-700DXM: rIFABP mutein MGI-KR14-14R 18L 27A 38V 60R 73F 76C 106L 115R 117D 131D-C2XH11 labeled with LICOR 700DX-maleimide (protein, LICOR 700DX-maleimide label; mutated bf sensitive probe, rIFABP mutein MGI-KR14-14R 18L 27A 38V 60R 73F 76C 106L 115R 117D 131D-C2XH11 labeled with LICOR 700DX-maleimide) MGIAFDGTWRVDRNENRERFLERMGINVVARRLGAHDNLRVTITQEGNRFTVRESSNFRNIDRVFELGVDFAYSLFDGCELTGTWTMEGNRLVGRFRRVDNGRELIAVLEISGNELIRTDTYEGVEARRIFRRDRGAASHHHHHHSHRATPNTSPHHHHHHH | 0.04 | 0.139±0.007 | 0.42 | 3.02
22 nM | – | 54C-C2XH11-700DXM: rIFABP mutein MGI-KR14-14R 18L 27A 38V 54C 60R 73F 106L 115R 117D 131D-C2XH11 labeled with LICOR 700DX-maleimide (protein, C2XH11 tag; LICOR 700DX-maleimide label; mutated bf sensitive probe, rIFABP mutein MGI-KR14-14R 18L 27A 38V 54C 60R 73F 106L 115R 117D 131D-C2XH11 labeled with LICOR 700DX-maleimide) MGIAFDGTWRVDRNENRERFLERMGINVVARRLGAHDNLRVTITQEGNRFTVRESSCFRNIDRVFELGVDFAYSLFDGTELTGTWTMEGNRLVGRFRRVDNGRELIAVLEISGNELIRTDTYEGVEARRIFRRDRGAASHHHHHHSHRATPNTSPHHHHHHH | 0.48 | – | – | –
16 nM | – | 74C-C2XH11-700DXM: rIFABP mutein MGI-KR14-14R 18L 27A 38V 60R 73F 74C 106L 115R 117D 131D-C2XH11 labeled with LICOR 700DX-maleimide (protein, C2XH11 tag; LICOR 700DX-maleimide label; mutated bf sensitive probe, rIFABP mutein MGI-KR14-14R 18L 27A 38V 60R 73F 74C 106L 115R 117D 131D-C2XH11 labeled with LICOR 700DX-maleimide) MGIAFDGTWRVDRNENRERFLERMGINVVARRLGAHDNLRVTITQEGNRFTVRESSNFRNIDRVFELGVDFAYSLFCGTELTGTWTMEGNRLVGRFRRVDNGRELIAVLEISGNELIRTDTYEGVEARRIFRRDRGAASHHHHHHSHRATPNTSPHHHHHHH | 0.15 | – | – | –
25 nM | – | 97C-C2XH11-700DXM: rIFABP mutein MGI-KR14-14R 18L 27A 38V 60R 73F 97C 106L 115R 117D 131D-C2XH11 labeled with LICOR 700DX-maleimide (protein, LICOR 700DX-maleimide label; mutated bf sensitive probe, rIFABP mutein MGI-KR14-14R 18L 27A 38V 60R 73F 97C 106L 115R 117D 131D-C2XH11 labeled with LICOR 700DX-maleimide) MGIAFDGTWRVDRNENRERFLERMGINVVARRLGAHDNLRVTITQEGNRFTVRESSNFRNIDRVFELGVDFAYSLFDGTELTGTWTMEGNRLVGRFRRVCNGRELIAVLEISGNELIRTDTYEGVEARRIFRRDRGAASHHHHHHSHRATPNTSPHHHHHHH | 0.29 | – | – | –
13 nM | – | 98C-C2XH11-700DXM: rIFABP mutein MGI-KR14-14R 18L 27A 38V 60R 73F 98C 106L 115R 117D 131D-C2XH11 labeled with LICOR 700DX-maleimide (protein, LICOR 700DX-maleimide label; mutated bf sensitive probe, rIFABP mutein MGI-KR14-14R 18L 27A 38V 60R 73F 98C 106L 115R 117D 131D-C2XH11 labeled with LICOR 700DX-maleimide) MGIAFDGTWRVDRNENRERFLERMGINVVARRLGAHDNLRVTITQEGNRFTVRESSNFRNIDRVFELGVDFAYSLFDGTELTGTWTMEGNRLVGRFRRVDCGRELIAVLEISGNELIRTDTYEGVEARRIFRRDRGAASHHHHHHSHRATPNTSPHHHHHHH | 0.03 | – | – | –
